The results in this text go back to US20240316102A1.

The target of the assay is CD38 on expanded NK cells (g-NK or cNK) (human) (UniProt P28907). Nature of the assay: cell-based or functional assay.

On to daratumumab (antibody), for which the daratumumab-induced fratricide of expanded NK cells (4 h, 1 µg/mL, PI staining, 3-color flow cytometry) (times lower (g-NK versus cNK)) stood at 13.
